Earlier results on one substance are cited in article PMC9858354.

One may read the Kd as the free concentration of one partner at which half of the binding sites on the other are occupied at equilibrium, for simple one-to-one binding.

The target in this data set is CCRL2 (Homo sapiens) (UniProt O00421). Put plainly: radioligand.
Sequence of CCRL2 (Homo sapiens) (O00421 whole entry): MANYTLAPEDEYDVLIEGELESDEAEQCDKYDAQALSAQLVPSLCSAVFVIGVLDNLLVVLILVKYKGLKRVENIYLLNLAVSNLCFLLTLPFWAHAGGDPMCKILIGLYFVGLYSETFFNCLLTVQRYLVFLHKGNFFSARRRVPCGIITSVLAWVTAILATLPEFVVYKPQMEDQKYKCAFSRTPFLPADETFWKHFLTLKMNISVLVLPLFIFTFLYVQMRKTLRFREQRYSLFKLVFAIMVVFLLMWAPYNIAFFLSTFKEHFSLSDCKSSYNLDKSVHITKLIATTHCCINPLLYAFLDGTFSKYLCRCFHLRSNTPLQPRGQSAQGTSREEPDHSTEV

Sequence of chemerin (Q99969 21-157): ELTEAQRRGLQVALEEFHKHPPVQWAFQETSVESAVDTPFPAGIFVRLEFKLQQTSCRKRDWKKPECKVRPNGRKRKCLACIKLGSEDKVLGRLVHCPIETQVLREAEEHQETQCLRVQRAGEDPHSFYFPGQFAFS

As for chemerin (from UniProt Q99969), the Kd is 2.35 nM.
